Where two headings read alike, the source gives them in different places. Values belong to the binder of their own block, whether it stands above or below them.
Assays:
Assay in all cases: flow cytometry on Raji cells, MFI (FL4)
[1] = target: T1, human CD47, endogenous cell surface form (Raji, CCRF-CEM cells) (human, UniProt Q08722 19-323)
T1 construct: the cells carry endogenous CD47; also called cell surface CD47
Description: (§1) Humanized antibodies were tested for their ability to bind Raji cells by flow cytometry (FIG. 7). […] Apparent affinities were determined by non-linear fits (Prism Graphpad Software) of the median fluorescence intensities at various antibody concentrations.

[2] = target: T1, human CD47, endogenous cell surface …; remark: listed apart in the source
Description: as §1

[3] = target: T1, human CD47, endogenous cell surface …; remark: listed apart in the source
Description: as §1

[4] = target: T1, human CD47, endogenous cell surface …; remark: listed apart in the source
Description: as §1

[5] = target: T1, human CD47, endogenous cell surface …; remark: listed apart in the source
Description: as §1

[6] = target: T1, human CD47, endogenous cell surface …; remark: listed apart in the source
Description: as §1

EC50 (read off the curve) [1]: ~0.5 nM
B1: AB02.03 (antibody, V domains shown)
VH: QMQLVQSGAEVKKTGSSVKVSCKASGFNIKDYYLHWVRQAPGQALEWMGWIDPDNGDTEYAQKFQDRVTITRDRSMSTAYMELSSLRSEDTAMYYCNAAYGSSSYPMDYWGQGTTVTV
VL: DIQMTQSPSSLSASVGDRVTITCKASQDIHRYLSWYQQKPGKAPKLLIYRANRLVDGVPSRFSGSGSGTDFTFTISSLQPEDIATYYCLQYDEFPYTFGGGTKVEIK
notes: humanized variant of 2A1; also called AB2.03

EC50 (read off the curve) [2]: ~0.1 nM
B2: AB22.05 (antibody, V domains shown)
VH: QMQLVQSGAEVKKTGSSVKVSCKASGFNIKDYYLHWVRQAPGQALEWMGWIDPDNGDTEYAQKFQDRVTITRDRSMSTAYLQLSSLRSEDTAMYYCNAAYGSSSYPMDYWGQGTTVTV
VL: NIQMTQSPSAMSASVGDRVTITCKASQDIHRYLSWFQQKPGKVPKHLIYRANRLVDGVPSRFSGSGSGTEFTLTISSLQPEDFATYYCLQYDEFPYTFGGGTKVEIK

EC50 (read off the curve) [2]: ~0.1 nM
B3: AB12.05 (antibody, V domains shown)
VH: QMQLVQSGAEVKKTGSSVKVSCKASGYTFTYYYLHWVRQAPGQALEWMGWIDPDNGDTEYAQKFQDRVTITRDRSMSTAYMELSSLRSEDTAMYYCNAAYGSSSYPMDYWGQGTTVTV
VL: NIQMTQSPSAMSASVGDRVTITCKASQDIHRYLSWFQQKPGKVPKHLIYRANRLVDGVPSRFSGSGSGTEFTLTISSLQPEDFATYYCLQYDEFPYTFGGGTKVEIK

EC50 (read off the curve) [3]: ~0.2 nM
B4: AB2.09 (antibody, V domains shown)
VH: QMQLVQSGAEVKKTGSSVKVSCKASGFNIKDYYLHWVRQAPGQALEWMGWIDPDNGDTEYAQKFQDRVTITRDRSMSTAYMELSSLRSEDTAMYYCNAAYGSSSYPMDYWGQGTTVTV
VL: DIQMTQSPSAMSASVGDRVTITCKASQDIHRYLSWFQQKPGKVPKHLIYRANRLVDGVPSRFSGSGSGTEFTLTISSLQPEDFATYYCLQYDEFPYTFGGGTKVEIK

EC50 (read off the curve) [2]: ~0.1 nM
B5: AB23.05 (antibody, V domains shown)
VH: QMQLVQSGAEVKKTGSSVKVSCKASGFNIKDYYLHWVRQAPGQALEWMGWIDPDNGDTEYAQKFQDRVTITRDRSMSTAYMELSSLTSEDTAVYYCNAAYGSSSYPMDYWGQGTTVTV
VL: NIQMTQSPSAMSASVGDRVTITCKASQDIHRYLSWFQQKPGKVPKHLIYRANRLVDGVPSRFSGSGSGTEFTLTISSLQPEDFATYYCLQYDEFPYTFGGGTKVEIK

EC50 (read off the curve) [1]: ~0.2 nM
B6: AB24.05 (antibody, V domains shown)
VH: EVQLVQSGAEVKKPGATVKISCKVSGFNIKDYYLHWVRQAPGQALEWMGWIDPDNGDTEYAQKFQDRVTITRDRSMSTAYMELSSLRSEDTAMYYCNAAYGSSSYPMDYWGQGTTVTV
VL: NIQMTQSPSAMSASVGDRVTITCKASQDIHRYLSWFQQKPGKVPKHLIYRANRLVDGVPSRFSGSGSGTEFTLTISSLQPEDFATYYCLQYDEFPYTFGGGTKVEIK

EC50 (read off the curve) [4]: ~0.05 nM
B7: AB2.13 (antibody, V domains shown)
VH: QMQLVQSGAEVKKTGSSVKVSCKASGFNIKDYYLHWVRQAPGQALEWMGWIDPDNGDTEYAQKFQDRVTITRDRSMSTAYMELSSLRSEDTAMYYCNAAYGSSSYPMDYWGQGTTVTV
VL: NIQMTQSPSAMSASVGDRVTITCRARQGIHRYLSWFQQKPGKVPKILIYRANRLVDGVPSRFSGSGSGTEFTLTISSLQPEDFATYYCLQYDEFPYTFGGGTKVEIK

EC50 (read off the curve) [3]: ~0.1 nM
B8: AB03.09 (antibody, V domains shown)
VH: EVQLVQSGAEVKKTGSSVKVSCKASGFNIKDYYLHWVRQAPGQALEWMGWIDPDNGDTEYAQKFQDRVTITRDRSMSTAYMELSSLRSEDTAMYYCNAAYGSSSYPMDYWGQGTTVTV
VL: DIQMTQSPSAMSASVGDRVTITCKASQDIHRYLSWFQQKPGKVPKHLIYRANRLVDGVPSRFSGSGSGTEFTLTISSLQPEDFATYYCLQYDEFPYTFGGGTKVEIK
notes: humanized variant of 2A1; also called AB3.09

EC50 (read off the curve) [1]: ~0.2 nM
B9: AB02.04 (antibody, V domains shown)
VH: QMQLVQSGAEVKKTGSSVKVSCKASGFNIKDYYLHWVRQAPGQALEWMGWIDPDNGDTEYAQKFQDRVTITRDRSMSTAYMELSSLRSEDTAMYYCNAAYGSSSYPMDYWGQGTTVTV
VL: DIQMTQSPSSLSASVGDRVTITCKASQDIHRYLSWFQQKPGKAPKSLIYRANRLVDGVPSRFSGSGSGTDFTLTISSLQPEDFATYYCLQYDEFPYTFGGGTKVEIK
notes: humanized variant of 2A1; also called AB2.04

binding result [1]: binds
B10: AB02.06 (antibody, V domains shown)
VH: QMQLVQSGAEVKKTGSSVKVSCKASGFNIKDYYLHWVRQAPGQALEWMGWIDPDNGDTEYAQKFQDRVTITRDRSMSTAYMELSSLRSEDTAMYYCNAAYGSSSYPMDYWGQGTTVTV
VL: DIQMTQSPSSLSASVGDRVTITCKASQDIHRYLSWYQQKPGKAPKRLIYRANRLVDGVPSRFSGSGSGTEFTLTISSLQPEDFATYYCLQYDEFPYTFGGGTKVEIK
notes: humanized variant of 2A1; also called AB2.06

binding result [5]: binds
B11: AB15.05 (antibody, V domains shown)
VH: QMQLVQSGAEVKKTGSSVKVSCKASGYTITYYYLHWVRQAPGQALEWMGWIDPDNGDTEYAQKFQDRVTITRDRSMSTAYMELSSLRSEDTAMYYCNAAYGSSSYPMDYWGQGTTVTV
VL: NIQMTQSPSAMSASVGDRVTITCKASQDIHRYLSWFQQKPGKVPKHLIYRANRLVDGVPSRFSGSGSGTEFTLTISSLQPEDFATYYCLQYDEFPYTFGGGTKVEIK

EC50 (read off the curve) [6]: ~0.3 nM
B12: AB10.14 (antibody, V domains shown)
VH: QMQLVQSGAEVKKTGSSVKVSCKASGFNIKDYYLHWVRQAPGQALEWMGWIDPDNTDTEYAQKFQDRVTITRDRSMSTAYMELSSLRSEDTAMYYCNAAYGSSSYPMDYWGQGTTVTV
VL: NIQMTQSPSAMSASVGDRVTITCRARQGIHRYLSWFQQKPGKVPKHLIYRANRLVSGVPSRFSGSGSGTEFTLTISSLQPEDFATYYCLQYDEFPYTFGGGTKVEIK

EC50 (read off the curve) [1]: ~0.3 nM
B13: AB25.05 (antibody, V domains shown)
VH: EVQLVQSGAEVKKPGATVKISCKVSGFNIKDYYLHWVQQAPGKGLEWMGWIDPDNGDTEYAQKFQDRVTITRDRSMSTAYMELSSLRSEDTAMYYCNAAYGSSSYPMDYWGQGTTVTV
VL: NIQMTQSPSAMSASVGDRVTITCKASQDIHRYLSWFQQKPGKVPKHLIYRANRLVDGVPSRFSGSGSGTEFTLTISSLQPEDFATYYCLQYDEFPYTFGGGTKVEIK

EC50 (read off the curve) [4]: ~0.03 nM
EC50 (read off the curve) [6]: ~0.07 nM
B14: AB6.13 (antibody, V domains shown)
VH: QMQLVQSGAEVKKTGSSVKVSCKASGFNIKDYYLHWVRQAPGQALEWMGWIDPDQGDTEYAQKFQDRVTITRDRSMSTAYMELSSLRSEDTAMYYCNAAYGSSSYPMDYWGQGTTVTV
VL: NIQMTQSPSAMSASVGDRVTITCRARQGIHRYLSWFQQKPGKVPKILIYRANRLVDGVPSRFSGSGSGTEFTLTISSLQPEDFATYYCLQYDEFPYTFGGGTKVEIK

EC50 (read off the curve) [1]: ~0.5 nM
B15: AB02.07 (antibody, V domains shown)
VH: QMQLVQSGAEVKKTGSSVKVSCKASGFNIKDYYLHWVRQAPGQALEWMGWIDPDNGDTEYAQKFQDRVTITRDRSMSTAYMELSSLRSEDTAMYYCNAAYGSSSYPMDYWGQGTTVTV
VL: DIQMTQSPSSLSASVGDRVTITCRASQDIHRYLAWYQQKPGKVPKLLIYRANRLQSGVPSRFSGSGSGTDFTLTISSLQPEDVATYYCLQYDEFPYTFGQGTKVEIK
notes: humanized variant of 2A1; also called AB2.07

binding result [6]: binds
B16: AB6.14 (antibody, V domains shown)
VH: QMQLVQSGAEVKKTGSSVKVSCKASGFNIKDYYLHWVRQAPGQALEWMGWIDPDQGDTEYAQKFQDRVTITRDRSMSTAYMELSSLRSEDTAMYYCNAAYGSSSYPMDYWGQGTTVTV
VL: NIQMTQSPSAMSASVGDRVTITCRARQGIHRYLSWFQQKPGKVPKHLIYRANRLVSGVPSRFSGSGSGTEFTLTISSLQPEDFATYYCLQYDEFPYTFGGGTKVEIK

EC50 (read off the curve) [3]: ~0.2 nM
B17: AB17.05 (antibody, V domains shown)
VH: QMQLVQSGAEVKKTGSSVKVSCKASGYTFTDYYLHWVRQAPGQALEWMGWIDPDNGDTEYAQKFQDRVTITRDRSMSTAYMELSSLRSEDTAMYYCNAAYGSSSYPMDYWGQGTTVTV
VL: NIQMTQSPSAMSASVGDRVTITCKASQDIHRYLSWFQQKPGKVPKHLIYRANRLVDGVPSRFSGSGSGTEFTLTISSLQPEDFATYYCLQYDEFPYTFGGGTKVEIK

EC50 (read off the curve) [4]: ~0.2 nM
B18: AB6.17 (antibody, V domains shown)
VH: QMQLVQSGAEVKKTGSSVKVSCKASGFNIKDYYLHWVRQAPGQALEWMGWIDPDQGDTEYAQKFQDRVTITRDRSMSTAYMELSSLRSEDTAMYYCNAAYGSSSYPMDYWGQGTTVTV
VL: NIQMTQSPSAMSASVGDRVTITCRARQGIHRYLSWFQQKPGKVPKLLIYRANRLVSGVPSRFSGSGSGTEFTLTISSLQPEDFATYYCLQYDEFPYTFGGGTKVEIK

binding result [6]: binds
B19: AB10.13 (antibody, V domains shown)
VH: QMQLVQSGAEVKKTGSSVKVSCKASGFNIKDYYLHWVRQAPGQALEWMGWIDPDNTDTEYAQKFQDRVTITRDRSMSTAYMELSSLRSEDTAMYYCNAAYGSSSYPMDYWGQGTTVTV
VL: NIQMTQSPSAMSASVGDRVTITCRARQGIHRYLSWFQQKPGKVPKILIYRANRLVDGVPSRFSGSGSGTEFTLTISSLQPEDFATYYCLQYDEFPYTFGGGTKVEIK

EC50 (read off the curve) [3]: ~0.2 nM
B20: AB11.05 (antibody, V domains shown)
VH: QMQLVQSGAEVKKTGSSVKVSCKASGFNIKDYYLHWVRQAPGQALEWMGWIDPDNGDTEYAQKFQDRVTITRDRSMSTAYMELSSLRSEDTAMYYCNAAYGSSPYPMDYWGQGTTVTV
VL: NIQMTQSPSAMSASVGDRVTITCKASQDIHRYLSWFQQKPGKVPKHLIYRANRLVDGVPSRFSGSGSGTEFTLTISSLQPEDFATYYCLQYDEFPYTFGGGTKVEIK

Reference: patent US20160251435A1 (INHIBRX, published 2016)
